Measured values as given in patent publication US20260069689A1 (Regeneron, published 2026).

Key:
[1] = biological target: T1, SARS-CoV2 Spike ecto foldon Trimer expressed with a C-terminal myc-myc-hexahistidine (SARS-CoV-2, UniProt P0DTC2 14-1213); test: SPR Biacore, mAb captured by anti-hFc, 37C
T1 construct: extracellular domain

[2] = biological target: T1, SARS-CoV2 Spike ecto foldon Trimer …; test: SPR Biacore, mAb captured by anti-hFc, 25C

B1: mAb14234 (antibody, V domains shown)
VH: QVQLVESGGGVVQPGRSLRLSCAASGFTFSSYGIHWVRQAPGKGLEWVAIIWYDGSEKYYADSVKGRFTISRDNSKNTLFLQMNSLEAEDTAVYYCARGPDLLTGYYNYFYYGMDVWGQGTTVTVSS
VL: QSVLTQPPSVSGAPGQRVTISCTGSSSNIGIGYDVHWYQQLPGTVPKLLIYGNTNRPSGVPDRFSGSKSGTSASLAITGLQAEDEADYYCQSYDSSLSSYVFGTGTKVTVLG
[1]
  Kd: 0.102 nM
  koff: 7.16e-05 s⁻¹
  kon: 699000 M⁻¹ s⁻¹
  t½: 2.69 h
[2]
  Kd: 0.0775 nM
  koff: 5.48e-05 s⁻¹
  kon: 707000 M⁻¹ s⁻¹
  t½: 3.51 h

B2: mAb15160 (antibody, V domains shown)
VH: EVQLVESGGGLVQPGGSLRLSCSASGFTFSRYAMYWVRQAPGKGLEYVSAISSDGGSTYDADSVKGRFTISRANSKNTLYLQMSSLRAEDTAVYYCVKGLRELLYYYYGMDVWGQGTTVTVSS
VL: DIQMTQSPSSLSASVGDRVTITCRAGQSISSFLNWYQQKPGKAPKLLIYAASSLQSGVPSRFSGSGSGTDFTLTISSLQPEDFATYYCQQSYITPFTFGPGTKVDIKR
[1]
  Kd: 0.132 nM
  koff: 0.000167 s⁻¹
  kon: 1.26e+06 M⁻¹ s⁻¹
  t½: 1.15 h
[2]
  Kd: 0.102 nM
  koff: 3.1e-05 s⁻¹
  kon: 304000 M⁻¹ s⁻¹
  t½: 6.21 h

B3: mAb14280 (antibody, V domains shown)
VH: QVQLVQSGAEVKKPGASVRVSCKASGYTFTGNYIHWVRQAPGQGLEWMAWINPNSGGKNYAQKFQGRVTLTRDTSVNTAYMELSRLRSDDTAMYYCARDVNYNILTGPGGLWGQGTLVTVSS
VL: QSALTQPPSASGSPGQSVTISCTGTSSDVGGYNFVSWYQQHPGKAPKLMIYEVSKRPSGVPDRFSGSKSGNTASLTVSGLQAEDEADYYCSSYAGSNNFVFGTGTKVTVLG
[1]
  Kd: 0.029 nM
  koff: 2.86e-05 s⁻¹
  kon: 985000 M⁻¹ s⁻¹
  t½: 6.73 h
[2]
  Kd: 0.0136 nM
  koff: 2.69e-05 s⁻¹
  kon: 1.99e+06 M⁻¹ s⁻¹
  t½: 7.14 h

B4: mAb15163 (antibody, V domains shown)
VH: EVQLVETGGGLIQPGESLRLSCAASGFIVSTNYMNWVRQAPGKGLEWVSVIYRGGSTYYADSVKGRFTISRDNSKNTLFLQMNSLRAEDTAVYYCARGHEDFDYDTPASGAFDIWGQGTMVTVSS
VL: QSALTQPPSASGSPGQSVTISCTGTSSDVGGHNYVSWYQQHPGKAPKVMIYEVSKRPSGVPDRFSGSKSGNTASLTVSGLQAEDEADYYCSSYAGSNKFVFGTGTKVTVLG
[1]
  Kd: 0.0364 nM
  koff: 4.85e-05 s⁻¹
  kon: 1.35e+06 M⁻¹ s⁻¹
  t½: 3.97 h
[2]
  Kd: 0.0562 nM
  koff: 1.15e-05 s⁻¹
  kon: 214000 M⁻¹ s⁻¹
  t½: 16.7 h

B5: mAb14232 (antibody, V domains shown)
VH: QITLKESGPTLVKPTQTLTLTCTFSGFSLSASGVGVGWIRQPPGKALEWLALIYWDDDKRYSPSLKSRLTITKDTSKNQVVLTMTNMDPVDTATYYCAQHKVATIFDYWGQGTLVTVSS
VL: QSALTQPPSASGSPGQSVTISCTATSSDVGNYNYVSWYQQHPGKAPKLMIYEVTKRPSGVPDRFSGSKSGNTASLTVSGLQAEDEADYYCSSYAGSWGVFGGGTKLTVLG
[1]
  Kd: 0.177 nM
  koff: 0.000133 s⁻¹
  kon: 751000 M⁻¹ s⁻¹
  t½: 1.45 h
[2]
  Kd: 0.195 nM
  koff: 0.000149 s⁻¹
  kon: 763000 M⁻¹ s⁻¹
  t½: 1.29 h

B6: mAb14285 (antibody, V domains shown)
VH: QVQLVQSGAEVKKPGASVKVSCKASGYTFTGYFIHWVRQAPGQGLEWMGWISPISGGTNYAQKFQGRVTVTRDTSITTAYMELSRLTSDDTAVYHCAREGGTWKGDFDYWGQGTLVTVSS
VL: QSALTQPASVSGSPGQSITISCTGTSSDVESYNLVSWYQQHPGKAPKLMIYEGSKRPSGVSNRFSGSKSGNTASLTISGLQAEDEADYYCSSYAGSSTWVFGGGTKLTVLG
[1]
  Kd: 0.0359 nM
  koff: 4.18e-05 s⁻¹
  kon: 1.16e+06 M⁻¹ s⁻¹
  t½: 4.61 h
[2]
  Kd: 0.017 nM
  koff: 3.98e-05 s⁻¹
  kon: 2.34e+06 M⁻¹ s⁻¹
  t½: 4.84 h

B7: mAb15164 (antibody, V domains shown)
VH: EVQLVESGGGLVQPGGSLRLSCAASGFAVSSNYMTWVRQAPGKGLEWVATIYSGDSTYYADSVKGRFTISRHNSKNTLSLQMNSLRADDTAIYYCARLSGVLSGTYNGAFDIWGQGTMVTVSS
VL: QSALTQPASVSGSPGQSITISCTGTSSDFGNYNIVSWYQQHPGQAPKVMIYEGNKRPSGVSNRFSGSKSGHTASLTISGLQAEDEADYYCSSYAGSSTWVFGGGTKLTVLG
[1]
  Kd: 0.0777 nM
  koff: 0.000138 s⁻¹
  kon: 1.78e+06 M⁻¹ s⁻¹
  t½: 1.4 h
[2]
  Kd: 0.0865 nM
  koff: 2.58e-05 s⁻¹
  kon: 298000 M⁻¹ s⁻¹
  t½: 7.47 h

B8: mAb15165 (antibody, V domains shown)
VH: EVQLVESGGGLVQPGGSLRLSCAASGFTVSSNYMSWVRQAPGKGLEWVSAIYSGDSTYYADSVKGRFTISKDNSKNTLYLQMNSLRGEDTAVYYCARLGGALQAYDGAFDYWGQGTLATVSS
VL: QSALTQPASVSGSPGQSITISCTGTSSDFGSYNLVSWYQQHPGKAPKLMIYEGNKRPSGVSIRFSGSKSGNTASLTISGLQAEDEADYYCSSYAGSSTWVFGGGTKLTVLG
[1]
  Kd: 0.0542 nM
  koff: 0.000115 s⁻¹
  kon: 2.12e+06 M⁻¹ s⁻¹
  t½: 1.67 h
[2]
  Kd: 0.0279 nM
  koff: 1.09e-05 s⁻¹
  kon: 391000 M⁻¹ s⁻¹
  t½: 17.6 h

B9: mAb15158 (antibody, V domains shown)
VH: EVQLVESGGGLVQPGGSLRLSCAASGFSFSSNWMSWVRQAPGKGLEWVGNINQDGSEKYYVDSVEGRFTISRDNAKKSLYLQMNSLRAEDTAVYYCARDLGVLWFGDFVDWGQGALVTVSS
VL: DIQMTQSPSSLSASVGDRVTITCRASQAISNSLAWYQQKPGKAPKLLLYAASTLESGVPSRFSGSGSGTDYTLTISSLQPEDFATYYCLQYYGSPRTFGQGTKVEIKR
[1]
  Kd: 0.0541 nM
  koff: 4.07e-05 s⁻¹
  kon: 758000 M⁻¹ s⁻¹
  t½: 4.73 h
[2]
  Kd: 0.153 nM
  koff: 1.4e-05 s⁻¹
  kon: 91500 M⁻¹ s⁻¹
  t½: 13.8 h

B10: mAb14256 (antibody, V domains shown)
VH: QVQLQESGPGLVKPSETLSLTCTVSGGSISSHYWSWIRQPPGKGLEWIGYIYYSGSSNYNPSLKSRVTISVDTSKNQFSLKLNSVTAADTAVYYCARHYDILTGFDWFDPWGQGTLVTVSS
VL: QSVLTQPPSVSGAPGQRVTISCTGSSSNIGTHYDVHWYQQLPGTAPKLLIYGNSNRPSGVPDRFSGSKSGTSASLAITGLQAEDEADYYCQSFDNSLTAPYVFGTGTKVTVLG
[1]
  Kd: 0.304 nM
  koff: 0.000242 s⁻¹
  kon: 796000 M⁻¹ s⁻¹
  t½: 0.795 h
[2]
  Kd: 0.129 nM
  koff: 0.000189 s⁻¹
  kon: 1.47e+06 M⁻¹ s⁻¹
  t½: 1.02 h

B11: mAb15159 (antibody, V domains shown)
VH: EVQLVESGGGLVQPGGSLRLSCAASGITVSSNYMTWVRQAPGKGLEWVSLIYSGGSTFYADSVRGRFTISRDNSKNTLYLQMNSLRAEDTAVYYCARDLVVYGMDVWGQGTTVTVSS
VL: DIQLTQSPSSLSASVGDRVTITCRASQGISSYLAWYQQKPGKAPKLLIYAASTLQSGVPSRFSGSGSGTDFTLTISSLQPEDFATYYCQHLNSDPHTFGQGTKLEIKR
[1]
  Kd: 0.0686 nM
  koff: 3.22e-05 s⁻¹
  kon: 467000 M⁻¹ s⁻¹
  t½: 5.99 h
[2]
  Kd: 0.231 nM
  koff: 2.02e-05 s⁻¹
  kon: 87500 M⁻¹ s⁻¹
  t½: 9.53 h

B12: mAb15161 (antibody, V domains shown)
VH: EVQLVESGGGLVQPGGSLRLSCAASGFTFSSYEMNWVRQAPGKGLEWVSYISSSGSILYYADSVKGRFTASRDNAKNSLYLQMNSLRAEDTGVYYCARREYQLLRPFEFWGQGTLVTVSS
VL: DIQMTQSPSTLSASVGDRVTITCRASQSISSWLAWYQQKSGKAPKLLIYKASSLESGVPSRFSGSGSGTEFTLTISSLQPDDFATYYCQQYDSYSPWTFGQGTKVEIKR
[1]
  Kd: 0.0616 nM
  koff: 9.14e-05 s⁻¹
  kon: 1.48e+06 M⁻¹ s⁻¹
  t½: 2.11 h
[2]
  Kd: 0.049 nM
  koff: 1.38e-05 s⁻¹
  kon: 280000 M⁻¹ s⁻¹
  t½: 14 h

B13: mAb15157 (antibody, V domains shown)
VH: EVQLVESGGALVQPGGSLRLSCAASGFPFTIYAMTWVRQAPGKGLEWVSVITGSGDSTYYADSVKGRFTISRDNSKNTLYLQMNSLRAEDTAVYYCVKTGEGFFYYYYGMDVWGQGTTVTVSS
VL: QSVLTQPPSVSAAPGQKVTISCSGSSSNIGNSYISWYQQLPGTAPKLLIYVNNKRPSGIPDRFSGSKSGTSATLGITGLQTGDEADYYCGTWDSSLSAGVFGSGTKVTVLG
[1]
  Kd: 0.141 nM
  koff: 0.00024 s⁻¹
  kon: 1.7e+06 M⁻¹ s⁻¹
  t½: 0.803 h
[2]
  Kd: 0.308 nM
  koff: 9.28e-05 s⁻¹
  kon: 302000 M⁻¹ s⁻¹
  t½: 2.08 h

B14: mAb15156 (antibody, V domains shown)
VH: QLQLQESGPGLVKSSETLSLTCTVSASITGSTYYWGWIRQPPGKGLEWIGSIYYSGTTYYKASLKSRVTISVDTSKNQFSLKLTSVTVADTAVYYCVSHLLGNYHKYGMDVWGQGTTVTVSS
VL: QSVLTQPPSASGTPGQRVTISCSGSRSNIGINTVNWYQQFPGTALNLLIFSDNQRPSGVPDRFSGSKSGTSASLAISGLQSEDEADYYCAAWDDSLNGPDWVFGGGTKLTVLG
[1]
  Kd: 0.112 nM
  koff: 0.000212 s⁻¹
  kon: 1.89e+06 M⁻¹ s⁻¹
  t½: 0.908 h
[2]
  Kd: 0.193 nM
  koff: 6.61e-05 s⁻¹
  kon: 342000 M⁻¹ s⁻¹
  t½: 2.91 h

B15: mAb15162 (antibody, V domains shown)
VH: EVQLVETGGGLIQPGGSLRLSCAASEFIVSRNYMSWVRQAPGKGLEWVSLIYSGGSTYYADSVKGRFTISRDNSKNILYLQMNSLRAEDTAVYYCARDRGGISDYWGQGTLVTVSS
VL: DIQMTQSPSSLSASVGDRVTITCQASQDINKYLNWFQQKPGKAPKLLIYDASNLETGVPSRFSGSGSGTDFTFTISSLQPEDIATYYCQQYDNLPRTFGQGTKLEIKR
[1]
  Kd: 0.425 nM
  koff: 0.000187 s⁻¹
  kon: 440000 M⁻¹ s⁻¹
  t½: 1.03 h
[2]
  Kd: 0.648 nM
  koff: 6.79e-05 s⁻¹
  kon: 105000 M⁻¹ s⁻¹
  t½: 2.83 h

B16: mAb14292 (antibody, V domains shown)
VH: EVQLVESGGGLVQPGGSLRLSCVASGFAFSTYEMNWVRQAPGKGLEWVSYISSSGSTIYYADSVKGRLTISRDNVKNSLYLQMNSLRVEDTAIYYCARDAIRNNDILTDPATFDPWGQGTLVTVSS
VL: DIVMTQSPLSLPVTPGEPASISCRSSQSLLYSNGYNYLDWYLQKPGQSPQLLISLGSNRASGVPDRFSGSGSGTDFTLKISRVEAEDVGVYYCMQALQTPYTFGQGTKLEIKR
[1]
  Kd: 11.5 nM
  koff: 0.00682 s⁻¹
  kon: 592000 M⁻¹ s⁻¹
  t½: 0.0283 h
[2]
  Kd: 7.21 nM
  koff: 0.00421 s⁻¹
  kon: 584000 M⁻¹ s⁻¹
  t½: 0.045 h
